Test results published in US11795460B2, “Compositions and methods for TTR gene editing and treating ATTR amyloidosis” (Intellia Therapeutics, Inc., priority 2017, dated 2023).
Strand notation (5' to 3'): a small letter for the sugar, then the base; units joined by * are phosphorothioate-linked, units joined directly phosphodiester-linked; [ ] holds rarer units or linkages, { } end groups; capitals alone tell only the bases. m = 2'-O-methyl; r = 2'-OH (RNA)

B1: G000502: TTR Cyno specific sgRNA modified sequence, SEQ ID No. 114; guide sequence of CR000689; cross homologous between mouse and cyno (nucleic acid)
guide: mA*mC*mA*rCrArArArUrArCrCrArGrUrCrCrArGrCrGrGrUrUrUrUrArGrAmGmCmUmAmGmAmAmAmUmAmGmCrArArGrUrUrArArArArUrArArGrGrCrUrArGrUrCrCrGrUrUrArUrCrAmAmCmUmUmGmAmAmAmAmAmGmUmGmGmCmAmCmCmGmAmGmUmCmGmGmUmGmCmU*mU*mU*mU
B2: G000489: TTR sgRNA modified sequence, Human, SEQ ID No. 96; guide sequence of CR003344 (nucleic acid)
guide: mU*mU*mU*rGrArCrCrArUrCrArGrArGrGrArCrArCrUrGrUrUrUrUrArGrAmGmCmUmAmGmAmAmAmUmAmGmCrArArGrUrUrArArArArUrArArGrGrCrUrArGrUrCrCrGrUrUrArUrCrAmAmCmUmUmGmAmAmAmAmAmGmUmGmGmCmAmCmCmGmAmGmUmCmGmGmUmGmCmU*mU*mU*mU
B3: G000481: TTR sgRNA modified sequence, Human, SEQ ID No. 88; guide sequence of CR003345 (nucleic acid)
guide: mU*mC*mU*rArGrArArCrUrUrUrGrArCrCrArUrCrArGrGrUrUrUrUrArGrAmGmCmUmAmGmAmAmAmUmAmGmCrArArGrUrUrArArArArUrArArGrGrCrUrArGrUrCrCrGrUrUrArUrCrAmAmCmUmUmGmAmAmAmAmAmGmUmGmGmCmAmCmCmGmAmGmUmCmGmGmUmGmCmU*mU*mU*mU
B4: G000499: TTR sgRNA modified sequence, Human, SEQ ID No. 106; guide sequence of CR005303 (nucleic acid)
guide: mU*mG*mA*rArUrCrCrArArGrUrGrUrCrCrUrCrUrGrArGrUrUrUrUrArGrAmGmCmUmAmGmAmAmAmUmAmGmCrArArGrUrUrArArArArUrArArGrGrCrUrArGrUrCrCrGrUrUrArUrCrAmAmCmUmUmGmAmAmAmAmAmGmUmGmGmCmAmCmCmGmAmGmUmCmGmGmUmGmCmU*mU*mU*mU
B5: G000486: TTR sgRNA modified sequence, Human, SEQ ID No. 93; guide sequence of CR003339 (nucleic acid)
guide: mA*mC*mA*rCrArArArUrArCrCrArGrUrCrCrArGrCrArGrUrUrUrUrArGrAmGmCmUmAmGmAmAmAmUmAmGmCrArArGrUrUrArArArArUrArArGrGrCrUrArGrUrCrCrGrUrUrArUrCrAmAmCmUmUmGmAmAmAmAmAmGmUmGmGmCmAmCmCmGmAmGmUmCmGmGmUmGmCmU*mU*mU*mU
B6: G000480: TTR sgRNA modified sequence, Human, SEQ ID No. 87; guide sequence of CR003353 (nucleic acid)
guide: mA*mA*mA*rGrGrCrUrGrCrUrGrArUrGrArCrArCrCrUrGrUrUrUrUrArGrAmGmCmUmAmGmAmAmAmUmAmGmCrArArGrUrUrArArArArUrArArGrGrCrUrArGrUrCrCrGrUrUrArUrCrAmAmCmUmUmGmAmAmAmAmAmGmUmGmGmCmAmCmCmGmAmGmUmCmGmGmUmGmCmU*mU*mU*mU
B7: G000488: TTR sgRNA modified sequence, Human, SEQ ID No. 95; guide sequence of CR003346 (nucleic acid)
guide: mA*mA*mA*rGrUrUrCrUrArGrArUrGrCrUrGrUrCrCrGrGrUrUrUrUrArGrAmGmCmUmAmGmAmAmAmUmAmGmCrArArGrUrUrArArArArUrArArGrGrCrUrArGrUrCrCrGrUrUrArUrCrAmAmCmUmUmGmAmAmAmAmAmGmUmGmGmCmAmCmCmGmAmGmUmCmGmGmUmGmCmU*mU*mU*mU
B8: G000482: TTR sgRNA modified sequence, Human, SEQ ID No. 89; guide sequence of CR003365 (nucleic acid)
guide: mU*mG*mU*rArGrArArGrGrGrArUrArUrArCrArArArGrGrUrUrUrUrArGrAmGmCmUmAmGmAmAmAmUmAmGmCrArArGrUrUrArArArArUrArArGrGrCrUrArGrUrCrCrGrUrUrArUrCrAmAmCmUmUmGmAmAmAmAmAmGmUmGmGmCmAmCmCmGmAmGmUmCmGmGmUmGmCmU*mU*mU*mU

What was measured:
[1] = test system: human TTR; test: Serum human TTR ELISA in humanized TTR mice (Table 26); assay type: in vivo, mouse; conditions: for Serum TTR(% TSS): Table 26, serum human TTR, LNP Formulation Numbers 6-16, 1 mg/kg (total RNA content)
Experimental: Blood was collected and the serum was isolated as indicated. The total mouse TTR serum levels were determined using a Mouse Prealbumin (Transthyretin) ELISA Kit (Aviva Systems Biology, Cat. OKIA00111); rat TTR serum levels were measured using a rat specific ELISA kit (Aviva Systems Biology catalog number OKIA00159); human TTR serum levels were measured using a human specific ELISA kit (Aviva Systems Biology catalog number OKIA00081); each according to manufacture's protocol. Briefly, sera were serial diluted with kit sample diluent to a final dilution of 10,000-fold, or 5,000-fold when measuring human TTR in mouse sera. 100 ul of the prepared standard curve or diluted serum samples were added to the ELISA plate, incubated for 30 minutes at room temperature then washed 3 times with provided wash buffer. 100 uL of detection antibody was then added to each well and incubated for 20 minutes at room temperature followed by 3 washes. 100 uL of substrate is added then incubated for 10 minutes at room temperature before the addition of 100 uL stop solution. The absorbance of the contents was measured on the Spectramax M5 plate reader with analysis using SoftmaxPro version 7.0 software. Serum TTR levels were quantitated off the standard curve using 4 parameter logistic fit and expressed as ug/mL of serum or percent knockdown relative control (vehicle treated) animals.
The level of human TTR in serum was measured in the mice provided formulation numbers 6-8, 10-13, and 15-16. FIG. 14A is a repeat of FIG. 13 provided for comparison purposes. Knockdown of serum human TTR was detected for each formulation tested, which correlated with the amount of editing detected in liver (See FIG. 14A vs 14B, Table 26).
In another set of experiments, humanized TTR mice were dosed with LNP formulations across a range of doses with guides G000480, G000488, G000489 and G000502. The formulations contained Cas9 mRNA (SEQ ID NO: 1) in a 1:1 ratio by weight to the guide. The LNPs contained Lipid A, Cholesterol, DSPC, and PEG2k-DMG in a 50:38:9:3 molar ratio, respectively, and having a N:P ratio of 6. Dosing was at 1, 0.3, 0.1, or 0.03 mg/kg (n=5/group). The LNPs were prepared using the cross-flow procedure described above and purified and concentrated using PD-10 columns and Amicon centrifugal filter units, respectively. Liver editing results were determined using primers designed to amplify the region of interest for NGS analysis and serum human TTR levels were measured as described above. Results for liver editing are shown in FIG. 26A and serum human TTR levels in FIG. 26B-C.
(§1) In another set of experiments, humanized TTR mice were dosed with LNP formulations across a range of doses with guides G000481, G000482, G000486 and G000499. The formulations contained Cas9 mRNA (SEQ ID NO: 1) in a 1:1 ratio by weight to the guide. […] Dosing was at 1, 0.3, or 0.1 mg/kg (n=5/group). The LNPs were prepared using the cross-flow procedure described above and purified and concentrated using PD-10 columns and Amicon centrifugal filter units, respectively. Liver editing results were determined using primers designed to amplify the region of interest for NGS analysis and serum human TTR levels were measured as described above. Results for liver editing are shown in FIG. 27A and serum human TTR levels in FIG. 27B-C.
as §1, with “guides G000480,” for “guides”, “G000486, G000499” for “G000482, G000486”, “G000502.” for “G000499.”, “1:2” for “1:1”, “Results for liver editing are shown in FIG. 27A and serum human TTR levels in FIG. 27B-C.” left out

[2] = test system: human TTR sequence; test: Liver editing in humanized TTR mice dosed with LNP formulations (Table 26); assay type: in vivo, mouse
[3] = 1, 0.3, 0.1, or 0.03 mg/kg, Cas9 mRNA (SEQ ID NO: 1) 1:1 by weight to guide, FIG. 26B-C
[4] = 1, 0.3, or 0.1 mg/kg, Cas9 mRNA (SEQ ID NO: 1) 1:2 by weight to guide, FIG. 28B-C
[5] = 1, 0.3, 0.1, or 0.03 mg/kg, Cas9 mRNA (SEQ ID NO: 1) 1:1 by weight to guide, FIG. 26A
[6] = 1, 0.3, or 0.1 mg/kg, Cas9 mRNA (SEQ ID NO: 1) 1:2 by weight to guide, FIG. 28A
[7] = 1, 0.3, or 0.1 mg/kg, Cas9 mRNA (SEQ ID NO: 1) 1:1 by weight to guide, FIG. 27B-C
[8] = 1, 0.3, or 0.1 mg/kg, Cas9 mRNA (SEQ ID NO: 1) 1:1 by weight to guide, FIG. 27A

| Molecule | Serum human TTR levels, dose response [1, 3] | Serum human TTR levels, dose response [1, 4] | Liver editing, dose response [2, 5] | Liver editing, dose response [2, 6] | Serum human TTR levels, dose response [1, 7] | Serum TTR(% TSS) [1] [% TSS] | Liver editing, dose response [2, 8] |
| --- | --- | --- | --- | --- | --- | --- | --- |
| B1 | A dose response for both editing and serum TTR levels was evident | A dose response for both editing and serum TTR levels was evident | A dose response for both editing and serum TTR levels was evident | A dose response for both editing and serum TTR levels was evident | – | – | – |
| B2 | A dose response for both editing and serum TTR levels was evident | – | A dose response for both editing and serum TTR levels was evident | – | – | – | – |
| B3 | – | A dose response for both editing and serum TTR levels was evident | – | A dose response for both editing and serum TTR levels was evident | A dose response for both editing and serum TTR levels was evident | 10.52 | A dose response for both editing and serum TTR levels was evident |
| B4 | – | A dose response for both editing and serum TTR levels was evident | – | A dose response for both editing and serum TTR levels was evident | A dose response for both editing and serum TTR levels was evident | 8.39 | A dose response for both editing and serum TTR levels was evident |
| B5 | – | A dose response for both editing and serum TTR levels was evident | – | A dose response for both editing and serum TTR levels was evident | A dose response for both editing and serum TTR levels was evident | – | A dose response for both editing and serum TTR levels was evident |
| B6 | A dose response for both editing and serum TTR levels was evident | A dose response for both editing and serum TTR levels was evident | A dose response for both editing and serum TTR levels was evident | A dose response for both editing and serum TTR levels was evident | – | – | – |
| B7 | A dose response for both editing and serum TTR levels was evident | – | A dose response for both editing and serum TTR levels was evident | – | – | – | – |
| B8 | – | – | – | – | A dose response for both editing and serum TTR levels was evident | – | A dose response for both editing and serum TTR levels was evident |
